One molecule from US20220017612A1 (TILOS THERAPEUTICS, published 2022) can be followed below.

Like-named read-outs stand apart in the source and are kept apart here.

Test [1] addresses T1, human GARP and human LAP-TGFβ1 co-expressed on P3U1 cells (human, UniProt Q14392 20-662).
T1 construct: whole, on cells; also called P3U1 cells over-expressing human GARP and LAP-TGFβ1
Description: flow cytometry, P3U1 cells. The method, then: (§1) This Example describes the binding of anti-LAP antibodies to LAP-TGFβ isoforms and LAP-TGFβ variants. In addition to antibodies 28G11_hIgG1, 22F9_hIgG1, and 20E6_hIgG1, anti-LAP antibodies 17G8_hIgG1, 24E3_hIgG1, and 2C9_(hyb) were also tested in this experiment. Briefly, 4×10⁵ each of (a) HT1080 cells, (b) HT1080 cells overexpressing human LAP-TGFβ1, (c) HT1080 cells overexpressing human LAP-TGFβ2, (d) HT1080 cells overexpressing human LAP-TGFβ3, (e) HT1080 cells overexpressing murine LAP-TGFβ1, (f) P3U1 cells, (g) P3U1 cells overexpressing LAP-TGFβ1 and GARP, and (h) P3U1 cells overexpressing LAP-TGFβ1 and LRRC33 were cultured in 96-well plates. The plates were centrifuged for 5 min at 1,500 rpm, liquid was removed, and cells were resuspended with 200 μL FACS buffer. The plates were centrifuged again, diluted primary antibody was added to each well, and the plates were incubated on ice for 20 minutes, followed by centrifugation. The cells were resuspended in 200 μL FACS buffer, centrifuged again, and resuspended in 50 μL diluted secondary antibody (Alexa647-anti-Human IgG or APC-anti-Mouse IgG). The plates were incubated on ice for 20 minutes in the dark, washed twice with 200 μL FACS buffer, and cells from each well (in 200 μL FACS buffer) were read on the Attune NXT instrument.
(In flow cytometry, cells or beads pass a laser one at a time.)

In test [2] the target is T2, fusion protein of a human IgG1 Fc domain and human LAP-TGFβ1 (human, UniProt P01137 30-390).
T2 construct: printed both as Fc-huB1 and LAP-TGFβ-Fc; also called Fc-huB1; Fc-human LAP
T2 sequence (P01137 30-390 limits assumed): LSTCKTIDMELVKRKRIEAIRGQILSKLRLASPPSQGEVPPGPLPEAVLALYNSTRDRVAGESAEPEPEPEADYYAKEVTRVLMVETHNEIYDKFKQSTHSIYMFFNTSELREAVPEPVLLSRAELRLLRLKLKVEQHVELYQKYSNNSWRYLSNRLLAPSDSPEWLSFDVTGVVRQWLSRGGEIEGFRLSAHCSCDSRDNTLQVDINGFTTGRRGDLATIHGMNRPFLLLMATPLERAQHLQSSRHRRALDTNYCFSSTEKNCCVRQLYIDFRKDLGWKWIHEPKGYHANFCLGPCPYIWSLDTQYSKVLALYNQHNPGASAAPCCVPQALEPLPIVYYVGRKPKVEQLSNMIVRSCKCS
Description: BLI, antibody on tip, 1:1 model. The method, then:
(§2) The chimeric antibodies were biotinylated using EZ-Link SulfoNHS-LC-Biotin (ThermoFisher). A streptavidin-functionalized tip was equilibrated in binding buffer (10 mM sodium phosphate, 150 mM sodium chloride, 1% (w/v) bovine serum albumin, 0.05% (w/v) sodium azide, pH 7.4). The tip was dipped in a 10 μg/mL solution of biotinylated, chimeric anti-LAP in binding buffer for 15 seconds to load the tip with antibody. The antibody-loaded tip was then washed in binding buffer and placed in a solution containing 0-24 nM of LAP-TGFβ1 (either a fusion protein containing a human IgG1 Fc domain fused to human LAP-TGFβ1 or a murine LAP-TGFβ1 with a C-terminal polyhistidine purification tag). The antigen was allowed to bind to antibody for 5 minutes (association phase), and then the tip was moved to binding buffer (dissociation phase). The association and dissociation phases were fit to a 1:1 binding model to determine the binding rate constants.

Test [3] deals with T3, murine LAP-TGFβ1 with a C-terminal polyhistidine purification tag (mouse, UniProt P04202 30-390).
T3 construct: also called Mouse LAP-TGFβ1
T3 sequence (P04202 30-390 limits assumed): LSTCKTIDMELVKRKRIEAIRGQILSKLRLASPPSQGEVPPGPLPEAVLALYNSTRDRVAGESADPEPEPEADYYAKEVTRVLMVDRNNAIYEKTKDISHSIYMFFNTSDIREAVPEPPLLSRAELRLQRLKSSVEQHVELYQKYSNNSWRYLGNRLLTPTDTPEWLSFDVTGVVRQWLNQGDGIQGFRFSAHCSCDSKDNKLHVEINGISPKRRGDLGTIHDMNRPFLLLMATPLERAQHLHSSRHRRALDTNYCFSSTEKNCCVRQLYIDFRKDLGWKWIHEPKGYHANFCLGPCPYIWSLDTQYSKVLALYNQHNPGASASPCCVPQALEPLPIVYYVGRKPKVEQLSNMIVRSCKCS
Description: BLI, antibody on tip, 1:1 model. As for the experimental part:
as §2
On the technique in general: BLI is a label-free optical method that tracks binding on a fibre tip over time.

The target of test [4] is T2, fusion protein of a human IgG1 Fc …. In words: BLI, antibody on tip, 1:1 model. As for the experimental part:
Binding to human TGFβ1 of a subset of candidates was also tested by bio-layer interferometry (Octet). A streptavidin coated tip was equilibrated for 60 seconds in binding buffer (10 mM sodium phosphate, 150 mM sodium chloride, 1% bovine serum albumin, 0.05% sodium azide). The tip was then dipped in 10 μg/mL biotinylated antibody in binding buffer. After 15 seconds, the tip was washed in binding buffer for 60 seconds, and then dipped in 0-24 nM Fc-human LAP. Analyte association was measured for 5 minutes. The tip was transferred to binding buffer alone, and analyte dissociation was measured for 5 minutes. The association and dissociation data were fit to a 1:1 binding model.
The source holds these as a separate data set.

In test [5] the target is T4, human-chicken LAP-TGFβ1 chimera #2.2 on HT1080 cells (human/chicken chimera, UniProt P01137 30-390).
T4 construct: also called HT1080-ch2.2
T4 sequence (P01137 other isoform, or with tags, fused parts or gaps mutant): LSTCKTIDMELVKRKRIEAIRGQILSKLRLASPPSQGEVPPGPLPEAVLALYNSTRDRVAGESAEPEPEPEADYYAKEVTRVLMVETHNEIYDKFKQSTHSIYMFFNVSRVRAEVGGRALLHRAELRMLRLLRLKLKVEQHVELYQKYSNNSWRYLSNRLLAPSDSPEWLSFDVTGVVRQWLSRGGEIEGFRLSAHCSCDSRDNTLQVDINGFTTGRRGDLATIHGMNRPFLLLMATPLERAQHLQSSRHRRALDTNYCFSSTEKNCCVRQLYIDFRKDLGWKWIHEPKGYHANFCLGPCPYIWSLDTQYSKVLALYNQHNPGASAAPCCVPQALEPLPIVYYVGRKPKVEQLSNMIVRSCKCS
Description: flow cytometry, HT1080 cells; grey bar = no anti-LAP antibody. As for the experimental part:
as §1
(§3) Cells were processed for flow cytometry in the same manner described above for the isoform-specific binding experiments.

In test [6] the target is T5, human-chicken LAP-TGFβ1 chimera #2.3 on HT1080 cells (human/chicken chimera, UniProt P01137 30-390).
T5 construct: also called HT1080-ch2.3
T5 sequence (P01137 other isoform, or with tags, fused parts or gaps mutant): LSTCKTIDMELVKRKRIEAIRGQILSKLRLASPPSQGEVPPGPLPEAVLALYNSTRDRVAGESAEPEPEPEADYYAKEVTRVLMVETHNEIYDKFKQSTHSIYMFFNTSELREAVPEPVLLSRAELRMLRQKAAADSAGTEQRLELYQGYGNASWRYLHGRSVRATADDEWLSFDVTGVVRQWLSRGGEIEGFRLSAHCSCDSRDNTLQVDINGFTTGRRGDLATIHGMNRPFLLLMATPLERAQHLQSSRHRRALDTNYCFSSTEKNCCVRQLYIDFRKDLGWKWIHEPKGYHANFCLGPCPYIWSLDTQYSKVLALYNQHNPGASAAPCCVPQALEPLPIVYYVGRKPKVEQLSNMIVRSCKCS
Described as above. The method, then:
as §1, §3

In test [7] the target is T6, human LAP-TGFβ1 with K27C and Y75C mutations on HT1080 cells (human, UniProt P01137 30-390).
T6 construct: also called closed conformation
T6 sequence (P01137 other isoform, or with tags, fused parts or gaps K27C Y75C K27C Y75C): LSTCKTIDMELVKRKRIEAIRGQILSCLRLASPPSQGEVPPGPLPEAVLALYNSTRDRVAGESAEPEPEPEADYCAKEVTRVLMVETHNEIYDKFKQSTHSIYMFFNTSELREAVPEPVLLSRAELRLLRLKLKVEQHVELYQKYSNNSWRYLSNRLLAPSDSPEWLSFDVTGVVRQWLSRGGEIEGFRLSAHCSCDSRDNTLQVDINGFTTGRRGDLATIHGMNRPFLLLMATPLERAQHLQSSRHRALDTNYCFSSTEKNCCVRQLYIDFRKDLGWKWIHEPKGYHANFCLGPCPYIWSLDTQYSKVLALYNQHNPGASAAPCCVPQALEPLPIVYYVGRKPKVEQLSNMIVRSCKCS
The test is described as above. As for the experimental part:
as §1, §3

In test [8] the target is T7, human LAP-TGFβ1 with a Y74T mutation on HT1080 cells (human, UniProt P01137 30-390).
T7 construct: also called HT1080-Y74T; open conformation
T7 sequence (P01137 other isoform, or with tags, fused parts or gaps Y74T Y74T): as the sequence (P01137 other isoform, or with tags, fused parts or gaps K27C Y75C K27C Y75C) above, with C27K, Y74T, C75Y counted along it
The description is as above. The method, then: as §1, §3

Test [9] addresses T8, LAP-only variant of human TGFβ1 (empty LAP) on HT1080 cells (human, UniProt P01137 30-277).
T8 construct: LAP without the mature cytokine; also called HT1080-emptyLAP; LAP-only construct
The test is described as above. As for the experimental part:
as §1, §3

Test [10] deals with T9, mature human TGFβ1 (free TGFβ1, without LAP) (human, UniProt P01137 279-390).
T9 construct: also called mature TGFβ; free human TGFβ1
T9 sequence (P01137 279-390 limits assumed): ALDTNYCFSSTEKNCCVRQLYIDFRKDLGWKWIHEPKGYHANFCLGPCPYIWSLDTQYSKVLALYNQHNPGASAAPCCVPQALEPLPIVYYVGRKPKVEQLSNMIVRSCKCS
Description: TGFβ1 ELISA after pre-incubation of 1000 pg mature TGFβ1 with antibody; loss of signal reflects binding. As for the experimental part: To determine whether anti-LAP antibodies 28G11_hIgG1, 22F9_hIgG1, 20E6_hIgG1, 17G8_hIgG1, and 24E3_hIgG1, bind to free human TGFβ1 (i.e., mature TGFβ1 that lacks LAP), the ability of the antibodies to inhibit an anti-TGFβ ELISA was evaluated. Briefly, mature TGFβ1 (1000 pg) was incubated with the indicated anti-LAP antibodies at 10 μg/mL, an isotype control antibody as a negative control or the commercially available anti-TGFβ antibody 1D11 as a positive control for 10 minutes on ice. For example, the 1D11 antibody is commercially available from any number of sellers, for example Bio x Cell Inc. (West Lebanon, N.H.). Supernatants were assayed in a TGFβ1 ELISA (R&D Systems) according to the manufacturer instructions to measure free TGFβ1. […] Note that Figure and FIG. are used interchangeably in this application.
(ELISA stands for enzyme-linked immunosorbent assay.)

T1 sequence (chain, as listed by the source, chain 1 of 2): as the sequence (P01137 30-390 limits assumed) above
T1 sequence (Q14392 20-662, chain 2 of 2): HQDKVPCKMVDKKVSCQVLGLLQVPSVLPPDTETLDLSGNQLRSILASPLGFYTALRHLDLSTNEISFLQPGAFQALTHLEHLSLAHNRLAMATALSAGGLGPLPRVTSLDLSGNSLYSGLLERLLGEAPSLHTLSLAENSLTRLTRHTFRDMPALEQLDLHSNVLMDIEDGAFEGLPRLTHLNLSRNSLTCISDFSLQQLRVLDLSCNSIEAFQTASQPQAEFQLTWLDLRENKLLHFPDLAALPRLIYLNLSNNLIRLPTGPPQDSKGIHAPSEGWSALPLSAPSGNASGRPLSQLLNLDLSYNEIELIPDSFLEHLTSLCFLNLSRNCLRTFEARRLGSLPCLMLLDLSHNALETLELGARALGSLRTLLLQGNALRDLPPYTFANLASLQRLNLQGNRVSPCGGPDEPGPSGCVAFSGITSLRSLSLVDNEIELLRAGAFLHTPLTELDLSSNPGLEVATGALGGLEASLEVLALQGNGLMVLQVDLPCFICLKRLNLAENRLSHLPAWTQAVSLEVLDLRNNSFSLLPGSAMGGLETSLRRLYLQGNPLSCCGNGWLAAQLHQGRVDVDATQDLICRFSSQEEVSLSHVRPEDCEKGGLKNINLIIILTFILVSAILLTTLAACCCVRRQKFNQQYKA
T8 sequence (P01137 30-277, change not shown): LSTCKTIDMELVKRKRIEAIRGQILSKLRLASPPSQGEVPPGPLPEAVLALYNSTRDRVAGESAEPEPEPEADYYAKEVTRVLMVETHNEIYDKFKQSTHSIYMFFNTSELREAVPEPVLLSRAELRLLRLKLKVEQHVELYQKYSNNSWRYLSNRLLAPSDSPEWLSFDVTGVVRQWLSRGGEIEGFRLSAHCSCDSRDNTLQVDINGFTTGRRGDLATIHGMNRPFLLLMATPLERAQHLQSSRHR

B1: 22F9_hIgG1 (antibody, V domains shown)
VH: QVQLQQPGAELVKPGASVKLSCKASGYTFTSYWMHWVKQRPGQGLEWIGMIHPNSGSTNYNEKFKSKATLTVDKSSSTAYMQLSSLTSEDSAVYYCAYYDYDGFFDVWGTGTTVTVSS
VL: DIVLTQSPASLDVSLGQRATISCRASKSVSTSGYSYMHWYQQKSGQPPKLLIYLASNLESGVPARFSGSGSGTHFTLNIHPVEEEDAATYYCQHSRELPYTFGGGTKLEIK
With B1, the binding result in test [1] is on record as “binds”; in test [5], “no binding”; in test [6], “binds”; in test [7], “binds”; in test [8], “no binding”; in test [9], “no binding”. Further, in [10], the binding result was “no binding (tested: 10 µg/mL)”. The Kd (in general, the free concentration of one partner at which half of the binding sites on the other are occupied at equilibrium, for simple one-to-one binding) is 0.76 nM in test [2], 0.37 nM in test [3] and 3.74 nM in [4]. Moreover, the values for the koff in [2], in test [3] and in test [4] were 0.000768 s⁻¹, 0.000444 s⁻¹ and 0.00168 s⁻¹, respectively. Besides, the association rate constant (kon) (as a rule, the second-order rate constant of association) in test [2] was determined as 1.01e+06 M⁻¹ s⁻¹; in [3], 1.21e+06 M⁻¹ s⁻¹; in test [4], 450000 M⁻¹ s⁻¹.
